According to patent US20170240633A1 (published 2017):
Where a chain is given by its changes, count along the chain named.

B1: anti-TIM-3 antibody clone A3 (antibody, V domains shown)
VH: QVQLVQSGAEVKKPGASVKVSCKASGYTFTSYYMHWVRQAPGQGLEWMGIINPSGGSTSYAQKFQGRVTMTRDTSTSTVYMELSSLRSEDTAVYYCARSPGVVTALFDYWGQGTLVTVSS
VL: DIQMTQSPSFMSASVGDRVTITCRASQDIGSYLAWYQQKPGKAPKLLIYAASTLQSGVPSRFSGSGSGTDFTLTINSLQPEDFATYYCQQSYSSPPTFGPGTTLEIK
notes: From a human phage display library; ELISA screening used Fab-containing supernatants and SPR speaks of 'each candidate Fab'; The format in each assay is not clearly stated
B2: anti-TIM-3 antibody clone G6 (antibody, V domains shown)
VH: QVQLQESGPGLVKPSGTLSLTCAVSGGSISSSNWWSWVRQPPGKGLEWIGEIYHSGSTNYNPSLKSRVTISVDKSKNQFSLKLSSVTAADTAVYYCARVVAVAGTVDYWGQGTLVTVSS
VL: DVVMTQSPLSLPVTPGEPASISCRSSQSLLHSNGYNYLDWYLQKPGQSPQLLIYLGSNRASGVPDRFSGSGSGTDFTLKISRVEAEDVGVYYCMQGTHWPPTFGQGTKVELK
notes: ELISA and SPR are described for Fab; The format in each assay is not clearly stated
B3: anti-TIM-3 antibody clone G7 (antibody, V domains shown)
VH: EVQLVQSGAEVKKPGASVKVSCKASGYTFTSYYMHWVRQAPGQGLEWMGIINPSGGSTSYAQKFQGRVTMTRDTSTSTVYMELSSLRSEDTAVYYCARDQYSSGWYYYGMDVWGQGTTVTVSS
VL: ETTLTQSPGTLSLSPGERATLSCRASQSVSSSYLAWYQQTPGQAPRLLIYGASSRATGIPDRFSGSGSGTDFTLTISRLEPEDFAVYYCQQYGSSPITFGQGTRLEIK
notes: as for B2
B4: anti-TIM-3 antibody clone G9 (antibody, V domains shown)
VH: B3 VH with E1Q, V5Q, Q100L, S103Y, W105F
VL: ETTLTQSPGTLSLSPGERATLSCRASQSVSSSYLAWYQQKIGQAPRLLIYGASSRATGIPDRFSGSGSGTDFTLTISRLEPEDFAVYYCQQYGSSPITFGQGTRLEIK
notes: as for B2
B5: anti-TIM-3 antibody clone B10 (antibody, V domains shown)
VH: QVQLQESGPGLVKASETLSLTCTVSGGSIGSSDYYWGWIRQPPGKGLEWIGSIYYSGSTYYNPSLKSRVTMSVDTPNNQFSLKLSSVTAADTAVYYCARGEHRGEFDYWGQGTLVTVSS
VL: EIVLTQSPATLSFSPGERATLSCRASQSVGSYLAWYQQRPGQAPRPLIYDATNRATGIPTRFSGSGSGTDFTLTISSLEPEDFATYYCQHRRTFGRGTKLEIK
notes: as for B2
B6: anti-TIM-3 antibody clone A11 (antibody, V domains shown)
VH: QVQLQQWGAGLLKPSETLSLTCAVYGGSFSGYYWSWIRQPPGKGLEWIGEINHSGSTNYNPSLKSRVTISVDTSKNQFSLKLSSVTAADTAVYYCARGYVAGFDYWGQGTLVTVSS
VL: QSVVTQPPSVSAAPGQKVTISCSGSSSNIGNNYVSWYQQLPGTAPKLLIYGNNWRPSGIPDRFSGSKSGTSATLAISGLQTGDEADYYCETWDSSLSAGVFGGGTKLTVL
notes: as for B2

Target: T1, human TIM-3 coupled to human Fc (human, UniProt Q8TDQ0 22-200, limits assumed)
T1 construct: Antigen coated on ELISA plates and immobilised on the SPR chip; not shown: human Fc
Test: ELISA on plate-coated human TIM-3 coupled to human Fc

Does B1 bind?
Result: binds

Does B2 bind?
Result: binds

Does B3 bind?
Result: binds

Does B4 bind?
Result: binds

Does B5 bind?
Result: binds

Does B6 bind?
Result: binds
